Reference: patent US20200024322A1 (Eli Lilly, published 2020)
Numbered stars: 1 amine (or outer) side, 2 acyl side, 3 side chain; on linkers, the order of the positions; unused ones are H or OH. Square brackets hold non-standard residues; d marks the D form. Side chains are listed from the residue outwards. Ends that are not written are not given here. * marks the point of attachment. C20 diacid = O=C(O)CCCCCCCCCCCCCCCCCCC(=O)*; γGlu = O=C(O)[C@H](CCC(=O)[*:2])N[*:1]; αMeL = CC(C)C[C@](C)(N)C(=O)O; AEEA = NCCOCCOCC(=O)O; Aib = CC(C)(N)C(=O)O

T1: human GIP receptor (human, UniProt P48546 22-466)
T1 construct: whole, on cells; Used as crude membranes of stably transfected CHO cells; also called hGIPR
T1 sequence (looked up): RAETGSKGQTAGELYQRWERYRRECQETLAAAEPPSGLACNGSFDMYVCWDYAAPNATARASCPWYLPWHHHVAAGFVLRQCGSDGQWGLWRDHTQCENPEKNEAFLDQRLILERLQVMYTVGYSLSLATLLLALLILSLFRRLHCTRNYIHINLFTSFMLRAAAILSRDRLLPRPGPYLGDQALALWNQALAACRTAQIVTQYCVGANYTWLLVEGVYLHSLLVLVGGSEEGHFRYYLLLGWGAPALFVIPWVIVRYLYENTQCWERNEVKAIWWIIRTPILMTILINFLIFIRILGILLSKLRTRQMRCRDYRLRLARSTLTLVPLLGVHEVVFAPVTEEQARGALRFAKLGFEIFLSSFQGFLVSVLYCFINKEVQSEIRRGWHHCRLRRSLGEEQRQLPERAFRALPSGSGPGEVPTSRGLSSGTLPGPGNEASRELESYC

B1: Example 192 (peptide)
peptide: YXEGTXTSDASIXLDEKAQXEFIXYLIEGGPSSGAPPPS
modifications: Aib2; αMeF(2F)6; αMeL13; K17((2-[2-(2-Amino-ethoxy)-ethoxy]-acetyl)2-(γ-Glu)-CO-(CH2)18-CO2H); Aib20; D-Glu24; C-terminal NH2
B2: Example 86 (peptide)
peptide: Y[Aib]EGTFTSDYSILLDKK([AEEA-AEEA-γGlu-C20 diacid])AQ[Aib]AFIEYLIEAGPSSGAPPPS-NH2
modifications: N-terminus assumed
SMILES: CC[C@H](C)[C@H](NC(=O)[C@H](CC(C)C)NC(=O)[C@H](Cc1ccc(O)cc1)NC(=O)[C@H](CCC(=O)O)NC(=O)[C@@H](NC(=O)[C@H](Cc1ccccc1)NC(=O)[C@H](C)NC(=O)C(C)(C)NC(=O)[C@H](CCC(N)=O)NC(=O)[C@H](C)NC(=O)[C@H](CCCCNC(=O)COCCOCCNC(=O)COCCOCCNC(=O)CC[C@H](NC(=O)CCCCCCCCCCCCCCCCCCC(=O)O)C(=O)O)NC(=O)[C@H](CCCCN)NC(=O)[C@H](CC(=O)O)NC(=O)[C@H](CC(C)C)NC(=O)[C@H](CC(C)C)NC(=O)[C@@H](NC(=O)[C@H](CO)NC(=O)[C@H](Cc1ccc(O)cc1)NC(=O)[C@H](CC(=O)O)NC(=O)[C@H](CO)NC(=O)[C@@H](NC(=O)[C@H](Cc1ccccc1)NC(=O)[C@@H](NC(=O)CNC(=O)[C@H](CCC(=O)O)NC(=O)C(C)(C)NC(=O)[C@@H](N)Cc1ccc(O)cc1)[C@@H](C)O)[C@@H](C)O)[C@@H](C)CC)[C@@H](C)CC)C(=O)N[C@@H](CCC(=O)O)C(=O)N[C@@H](C)C(=O)NCC(=O)N1CCC[C@H]1C(=O)N[C@@H](CO)C(=O)N[C@@H](CO)C(=O)NCC(=O)N[C@@H](C)C(=O)N1CCC[C@H]1C(=O)N1CCC[C@H]1C(=O)N1CCC[C@H]1C(=O)N[C@@H](CO)C(N)=O
B3: Example 55 (peptide)
peptide: H[Aib]EGTFTSDYSI[αMeL]LDEK([AEEA-AEEA-γGlu-C20 diacid])AQHAFIEYLIEGGPSSGAPPPS-NH2
modifications: N-terminus assumed
SMILES: CC[C@H](C)[C@H](NC(=O)[C@H](CC(C)C)NC(=O)[C@H](Cc1ccc(O)cc1)NC(=O)[C@H](CCC(=O)O)NC(=O)[C@@H](NC(=O)[C@H](Cc1ccccc1)NC(=O)[C@H](C)NC(=O)[C@H](Cc1c[nH]cn1)NC(=O)[C@H](CCC(N)=O)NC(=O)[C@H](C)NC(=O)[C@H](CCCCNC(=O)COCCOCCNC(=O)COCCOCCNC(=O)CC[C@H](NC(=O)CCCCCCCCCCCCCCCCCCC(=O)O)C(=O)O)NC(=O)[C@H](CCC(=O)O)NC(=O)[C@H](CC(=O)O)NC(=O)[C@H](CC(C)C)NC(=O)[C@](C)(CC(C)C)NC(=O)[C@@H](NC(=O)[C@H](CO)NC(=O)[C@H](Cc1ccc(O)cc1)NC(=O)[C@H](CC(=O)O)NC(=O)[C@H](CO)NC(=O)[C@@H](NC(=O)[C@H](Cc1ccccc1)NC(=O)[C@@H](NC(=O)CNC(=O)[C@H](CCC(=O)O)NC(=O)C(C)(C)NC(=O)[C@@H](N)Cc1c[nH]cn1)[C@@H](C)O)[C@@H](C)O)[C@@H](C)CC)[C@@H](C)CC)C(=O)N[C@@H](CCC(=O)O)C(=O)NCC(=O)NCC(=O)N1CCC[C@H]1C(=O)N[C@@H](CO)C(=O)N[C@@H](CO)C(=O)NCC(=O)N[C@@H](C)C(=O)N1CCC[C@H]1C(=O)N1CCC[C@H]1C(=O)N1CCC[C@H]1C(=O)N[C@@H](CO)C(N)=O
B4: Example 52 (peptide)
peptide: YXEGTFTSDYSIXLDSKAQXAFIEYLIEGGPSSGAPPPS
modifications: Aib2; αMeL13; K17((2-[2-(2-Amino-ethoxy)-ethoxy]-acetyl)2-(γ-Glu)-CO-(CH2)18-CO2H); Aib20; C-terminal NH2

These binders were tested against T1, human GIP receptor (assay: SPA, [125I]-GIP displacement, hGIPR membranes).

First: B1
Second: B2
The Ki of the first is 2.9-fold higher: 0.118 nM for the first, 0.0401 nM for the second.

First: B3
Second: B4
The Ki of the first is 180-fold higher: 6.24 nM for the first, 0.0342 nM for the second.

These binders were tested against T2, human GLP-1 receptor (human, UniProt P43220 24-463) (assay: SPA, [125I]-GLP-1 displacement, hGLP-1R membranes).
T2 construct: whole, on cells; Used as crude membranes of stably transfected HEK293 cells; also called hGLP1R; hGLP-1R

B1 and B2 are within 1.5-fold of each other in Ki: 2.89 nM for the first, 3.74 nM for the second.

B3 and B4 are within 1.5-fold of each other in Ki: 7.29 nM for the first, 5.81 nM for the second.
